T1: SRA–Spacer of UHRF1 (residues 414–674) (human, UniProt Q96T88 414-674)
T1 chain: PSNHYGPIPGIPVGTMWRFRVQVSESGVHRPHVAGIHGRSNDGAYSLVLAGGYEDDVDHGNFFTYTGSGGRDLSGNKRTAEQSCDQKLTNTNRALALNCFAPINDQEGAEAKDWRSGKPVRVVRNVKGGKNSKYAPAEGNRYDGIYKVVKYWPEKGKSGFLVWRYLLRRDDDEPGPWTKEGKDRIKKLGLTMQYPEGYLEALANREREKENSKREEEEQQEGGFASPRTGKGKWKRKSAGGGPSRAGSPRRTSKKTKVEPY

T2: Spacer K648D (human, UniProt Q96T88 587-674, K648D)
T2 sequence: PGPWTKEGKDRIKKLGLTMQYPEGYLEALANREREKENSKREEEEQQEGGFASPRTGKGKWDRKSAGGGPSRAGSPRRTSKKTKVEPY

T3: Spacer S639D (human, UniProt Q96T88 587-674, S639D)
T3 sequence: T2 sequence with S53D, D62K

T4: Spacer S651D (human, UniProt Q96T88 587-674, S651D)
T4 sequence: T2 sequence with D62K, S65D

T5: Spacer S666D (human, UniProt Q96T88 587-674, S666D)
T5 sequence: T2 sequence with D62K, S80D

T6: Spacer R649A (human, UniProt Q96T88 587-674, R649A)
T6 sequence: T2 sequence with D62K, R63A

T7: Spacer^Δ642–651 (human, UniProt Q96T88 587-674, Δ642–651)
T7 sequence: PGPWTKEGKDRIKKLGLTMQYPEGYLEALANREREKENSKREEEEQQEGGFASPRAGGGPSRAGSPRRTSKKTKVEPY

T8: Spacer^Δ660–664 (human, UniProt Q96T88 587-674, Δ660–664)
T8 sequence: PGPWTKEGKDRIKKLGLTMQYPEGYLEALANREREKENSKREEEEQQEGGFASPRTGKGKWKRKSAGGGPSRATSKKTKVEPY

T9: Spacer^Δ665–669 (human, UniProt Q96T88 587-674, Δ665–669)
T9 sequence: T8 sequence with T74G, K76P, K77R, T78R

T10: Spacer^Δ670–674 (human, UniProt Q96T88 587-674, Δ670–674)
T10 sequence: T8 sequence with T74G, K76P, K77R, T78R, K79T, V80S, E81K, P82K, Y83T

T11: Spacer^Δ650–654 (human, UniProt Q96T88 587-674, Δ650–654)
T11 sequence: T8 sequence with K64G, S65P, A66S, G67R, G68A, P70S, S71P, A73R

T12: Spacer^Δ655–659 (human, UniProt Q96T88 587-674, Δ655–659)
T12 sequence: T8 sequence with P70S, S71P, A73R

B1: TTD of UHRF1 (residues 134–285) (domain or fragment)
chain: LYKVNEYVDARDTNMGAWFEAQVVRVTRKAPSRDEPCSSTSRPALEEDVIYHVKYDDYPENGVVQMNSRDVRARARTIIKWQDLEVGQVVMLNYNPDNPKERGFWYDAEISRKRETRTARELYANVVLGDDSLNDCRIIFVDEVFKIERPGE
B2: Spacer of UHRF1 (residues 587–674) (domain or fragment)
chain: T2 sequence with D62K

Assay [1] concerns the target B1. Description: ITC.
In assay [2] the target is T1, SRA–Spacer of UHRF1 (residues 414–674). In words: ITC.
Assay [3] addresses B2. Description: ITC.
The target of assay [4] is T2, Spacer K648D. In words: ITC.
Assay [5] deals with T3, Spacer S639D. In words: ITC.
The target in assay [6] is T4, Spacer S651D. In words: ITC.
Assay [7] addresses T5, Spacer S666D. In words: ITC.
The target in assay [8] is T6, Spacer R649A. Description: ITC.
Assay [9] deals with T7, Spacer^Δ642–651. In words: ITC.
Assay [10] concerns the target T8, Spacer^Δ660–664. Description: ITC.
Assay [11] has as its target T9, Spacer^Δ665–669. In words: ITC.
Assay [12] has as its target T10, Spacer^Δ670–674. Description: ITC.
For assay [13], the target named is T11, Spacer^Δ650–654. Description: ITC.
Assay [14] addresses T12, Spacer^Δ655–659. In words: ITC.
In assay [15] the target is T1, SRA–Spacer of UHRF1 (residues 414–674). In words: ITC; in presence of hm-DNA (1:2).
The target in assay [16] is B2. Description: ITC; in presence of hm-DNA (1:2).
For assay [17], the target named is B1. Description: ITC; phosphorylated S651.
Assay [18] addresses B1. Description: ITC; in presence of Linker (TTD:Linker 1:2).
Assay [19] has as its target B1. Description: ITC; in presence of Linker.

Positions count from the first letter of the chain named. Non-standard residues stand in square brackets, D forms with d. No end group written: not given here. pS = N[C@@H](COP(=O)(O)O)C(=O)O

On to TGKGKWKRKSAGGGPSRAGSPRRTSKKTKVEPY (domain or fragment) [Spacer^642–674], for which, in [1], binding was put at a Kd of 970 nM.

TGKGKWKRKSAGGGPSRAGSPRR [unmodified peptide of Spacer^642–664]: the dissociation constant (Kd) in [1] turned out to be 1260 nM.

In the case of B1, the equilibrium dissociation constant (Kd) in [2] stood at 820 nM; in assay [3], 2340 nM; in assay [4], 5940 nM; in [5] it was 1150 nM; in [6] it was 8810 nM; in assay [7], 1260 nM. Besides, the dissociation constant Kd in [8] was found to be 21400 nM; in assay [9], 11200 nM; in [10] it was 2470 nM; in assay [11] it was 1850 nM; in assay [12], 950 nM; in assay [13] it was 3800 nM. Also, the Kd turned out to be 2980 nM in assay [14], 143000 nM in assay [15] and 2040 nM in assay [16].

Molecule TGKGKWKRK[pS]AGGGPSRAGSPRR [peptide of Spacer^642–664 phosphorylated at S651] showed a Kd in [17] of 27800 nM.

With B2, the dissociation constant (Kd) in [18] and in assay [19] was 3730 nM in each case.

Source of the values: article PMC4822050 (2016).
